The source of these data is patent US20100093076A1, “SOLUBLE IL-27 RECEPTOR” (priority 2006, published 2010).

The target in assay [1] is T1, human ligand (single-chain IL27: EBI3 linked to IL-27 p28) (Homo sapiens, UniProt Q14213+Q8NEV9).
T1 construct: purchased R&D Systems
T1 sequence (Q14213+Q8NEV9 with tags, fused parts or gaps): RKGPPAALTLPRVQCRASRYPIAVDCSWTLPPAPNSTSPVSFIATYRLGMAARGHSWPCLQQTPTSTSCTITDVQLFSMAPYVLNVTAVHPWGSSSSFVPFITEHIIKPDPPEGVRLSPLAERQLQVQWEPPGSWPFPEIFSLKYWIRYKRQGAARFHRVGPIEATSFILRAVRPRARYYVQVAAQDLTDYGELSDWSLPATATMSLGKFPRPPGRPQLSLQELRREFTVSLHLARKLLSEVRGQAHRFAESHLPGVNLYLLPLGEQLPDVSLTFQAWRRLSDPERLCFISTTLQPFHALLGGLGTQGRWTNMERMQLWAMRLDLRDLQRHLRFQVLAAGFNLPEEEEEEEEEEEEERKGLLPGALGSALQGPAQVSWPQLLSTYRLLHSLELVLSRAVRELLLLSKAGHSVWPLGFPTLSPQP
Description: Surface plasmon resonance (BIACORE 3000) kinetic rate and affinity constants. The settings on record: SPR. The assay is classed as binding. The procedure: (§1) Kinetic rate and affinity constant values for the mouse (IL27RAm(mFc1), Example 1) and human (IL27RA-Fc5, Example 2) soluble receptors were obtained by surface plasmon resonance (SPR) using an automated instrument (BIACORE 3000; Biacore International AB, Uppsala, Sweden). The mouse soluble receptor was tested against mouse ligand (lot A1418F), and the human soluble receptor was tested against both mouse (A1426F) and human (A1534F) ligands. For determination of the kinetic rate constants for the receptor-ligand interactions, the gp130 molecule was not included as part of the receptor complex.
(§2) The IL27 ligands used in this study were single-chain molecules comprising EBI3 connected by its C-terminus to the N-terminus of IL-27 p28 via a polypeptide linker. (R&D Systems) Each of the ligands included an amino-terminal peptide tag.
(§3) For the mouse IL27RA study, the soluble receptor was captured onto the chip surface by an isotype-specific anti-mouse Fc antibody (obtained from Jackson ImmunoResearch Laboratories, Inc., West Grove, Pa.) covalently immobilized to the chip (BIACORE CM5 chip) using the standard amine coupling protocol specified by the instrument manufacturer. For the human IL27RA studies, the soluble receptor was directly and covalently immobilized to the chip via the amine coupling protocol. In all studies, ligand was injected over the active (receptor-bound) surface at varying concentrations to obtain a series of binding curves.
(§4) Experimental conditions were optimized for determination of kinetic rate constant values. The molecular densities of the soluble receptor protein loaded onto the chip surface were targeted to obtain maximum IL27 binding levels (Rmax) of ≦20 RU. The analyte (ligand) was injected over the receptor surface at a flow rate of […] at a concentration range of approximately 0.05 to 10 nM, allowing for an association phase of 3 minutes and a dissociation phase of 10 minutes. The mouse soluble receptor surface was regenerated with two 30-second injections at 50 μL/minute of glycine, pH 2.0. The human soluble receptor surface was similarly regenerated with a single 30-second injection.
(§5) All data were assessed using software provided with the instrument (BIACORE Evaluation software v. 3.2). The binding curves were globally fitted to a 1:1 binding model corrected for mass transport limitation resulting from the fast on-rate values (ka) obtained. Statistical analysis of the fits of the experimental binding curves versus theoretical curves gave standard error values for ka and kd of less than 2%, and chi^2 values of less than 2% of Rmax for all interactions tested, providing reasonable confidence in the kinetic rate constant values obtained.

The target of assay [2] is T2, mouse ligand (single-chain IL27: EBI3 linked to IL-27 p28) (Mus musculus, UniProt O35228+Q8K3I6).
T2 construct: purchased R&D Systems
T2 sequence (O35228+Q8K3I6 with tags, fused parts or gaps): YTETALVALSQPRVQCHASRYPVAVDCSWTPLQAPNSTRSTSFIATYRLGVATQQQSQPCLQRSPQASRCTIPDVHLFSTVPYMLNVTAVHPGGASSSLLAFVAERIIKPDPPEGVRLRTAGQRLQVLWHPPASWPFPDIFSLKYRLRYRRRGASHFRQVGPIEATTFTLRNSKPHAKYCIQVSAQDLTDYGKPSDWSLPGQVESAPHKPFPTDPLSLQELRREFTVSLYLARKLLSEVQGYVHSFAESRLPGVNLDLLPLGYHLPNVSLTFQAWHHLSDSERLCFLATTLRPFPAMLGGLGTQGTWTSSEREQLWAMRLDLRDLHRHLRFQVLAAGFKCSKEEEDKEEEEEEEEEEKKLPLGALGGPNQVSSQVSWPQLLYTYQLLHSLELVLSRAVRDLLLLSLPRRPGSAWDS
The assay is described as above. The assay is classed as binding. The settings on record: SPR. On the procedure:
as §1, §2, §3, §4, §5

In the next assay the target is T3, single-chain mouse IL-27 (Mus musculus, UniProt O35228+Q8K3I6).
T3 sequence (O35228+Q8K3I6 with tags, fused parts or gaps): T2 sequence (O35228+Q8K3I6 with tags, fused parts or gaps)
Description: IL-27 inhibition of IL-2 production neutralized by IL-27RA Fc (third set of experiments). The settings on record: + IL-27 (10 ng/ml). The assay is classed as cell-based. The procedure:
Naïve mouse CD4 T-cells were isolated as described above. For testing of the neutralizing mAbs, the naïve CD4 T cells were preincubated for 30 minutes at 37 degrees C. with graded concentrations (60, 30, 15, 7.5, 3.75, 1.875.micro.g/ml) of either neutralizing rat anti-mouse IL27RA mAb (each mAb tested separately), rat IgG1 isotype control mAb, rat IgG2a isotype control mAb, or no mAb. […] The CD4 T cells (4×10^5/well) were then transferred to anti-CD3 coated tissue culture plates. Single-chain mouse IL-27 (10 ng/ml) was then added to the plates. Duplicate plates were set up for all experimental conditions. The plates were then cultured at 37 degrees for up to 72 hours.
For testing of the soluble receptor, single-chain mouse IL-27 (10 ng/ml) was preincubated for 30 minutes at 37 degrees C. with either IL27RAm(mFc1) (10.0 and 5.0.micro.g/ml), IL27RA-Fc5, mouse Fc1 protein (10.0 and 5.0.micro.g/ml), human Fc5 protein (10.0 and 5.0.micro.g/ml), or no recombinant protein in wells of the anti-CD3 coated plates. 4×10^5 CD4^+ CD62L high cells were added to the wells. Duplicate plates were set up for all experimental conditions. The plates were then cultured at 37 degrees for up to 72 hours. Cell supernatants were collected from one set of plates at 48 hours and from the duplicate set of plates at 72 hours. The supernatants were stored frozen at −80° C.

Several values for one entry are separate records, joined by “and”; a condition that tells them apart may be missing. Identical values can stand only once.

As for “human IL-27RA-Fc5: Extracellular domain of human IL27RA (amino acids 1 to 512 of SEQ ID NO:3) fused to Fc5, effector minus human gamma1 Fc; SEQ ID NO:16”, the results for the ka in assay [1] (1:1 binding model) and in assay [2] (1:1 binding model) were 1e+07 M⁻¹ s⁻¹ and 8.1e+06 M⁻¹ s⁻¹, respectively. Besides, the values for the kd in assay [1] (1:1 binding model) and in assay [2] (1:1 binding model) were 0.0019 s⁻¹ and 0.0018 s⁻¹, respectively. The values for the Kd in assay [1] (Kd=kd/ka) and in assay [2] (Kd=kd/ka) were 0.19 nM and 0.22 nM, respectively. The IL-2 concentration with single-chain mouse IL-27 (48 hr, protein conc. 5 (μg/ml; Fc controls in molar equiv.)) was 5784.11 pg/mL; with single-chain mouse IL-27 (48 hr, protein conc. 10 (μg/ml; Fc controls in molar equiv.), listed as hIL-27RA) it was 5774.94 pg/mL and 5333.6 pg/mL; with single-chain mouse IL-27 (72 hr, protein conc. 5 (μg/ml; Fc controls in molar equiv.)) it was 1869.62 pg/mL; with single-chain mouse IL-27 (72 hr, protein conc. 10 (μg/ml; Fc controls in molar equiv.), listed as hIL-27RA) it was 28607.63 pg/mL and 17481.17 pg/mL.
